Test system: MS2 coat protein
Test: apparent KD of MS2 coat protein; higher = weaker reporter binding
Conditions: Eterna round: R107
Method in brief: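 Apparent KD per design is the median of normalised cluster binding-curve fits. Designed RNA switches transcribed on-chip from Illumina sequencing clusters were titrated with SNAP-549-labelled MS2 coat protein in twofold steps from 0.7 or 1.5 nM to 3 µM, with 0.8–1.5 h down to 10–20 min per step. Buffer: 100 mM Tris-HCl pH 7.5, 80 mM KCl, 4 mM MgCl2, without or with constant ligand.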

[1] = input ligand: theophylline 20 uM
[2] = input ligand: theophylline 2 mM
[3] = input ligand: tryptophan 2.4 mM

| Sequence | apparent KD of MS2 coat protein (input ligand: arginine 13.2 mM) | apparent KD of MS2 coat protein [1] | apparent KD of MS2 coat protein [2] | apparent KD of MS2 coat protein (input ligand: none) | apparent KD of MS2 coat protein [3] |
| --- | --- | --- | --- | --- | --- |
| CACGCACGAUCGGCCGCCACUCAUGUAGCUUACAUGAGGAUCACCCAUGUAUUUUCUUUCUUAUAGAGGACCGGGAUCGUGCGUG [#04 Same State - Tryptophan B] | 21 nM | 28.2 nM | 24.5 nM | – | – |
| CACGGACGAGUGGAUCACCCUUGUAAUAACCGAGGACCGGUACGGCCGCCACUCGAAAACCGUGACCUGUACGAAAAGUGCAGGA | 14.2 nM | 148 nM | 466 nM | 26.5 nM | 195 nM |
| CACUUCAUGUGAGAUACCAGUGCCUUACAUGAGGAUCACCCAUGUCGUAAUGUGGAGAAGCACCCUUGGCAGCUCGCUUCGAGUG [Theo B SS t6] | 57.2 nM | 91.6 nM | – | – | 87.6 nM |
| CAGCACAUGAGGAUCACCCAUGUGAGGGAUACCAGCUCAGGCGUGGGCCCUUGGCAGCUCUGUGGCUGACGAAAGUCAGCCUCUG [#18 SameState-TheophyllineA] | 13.4 nM | 17.7 nM | 15.4 nM | 14.6 nM | 13.4 nM |
| CAGGUUAGGGCGGCCGCCACUGUGGCUACGGUACAUGAGGAUCACCCAUGUUUGUGGUUGAUCUACAGGACCGGGCCCUGACACG [Matidier] | 48.9 nM | 145 nM | 665 nM | 236 nM | 272 nM |
| CAUGUUAGGGCGGCCGCCACUGUGGCUACGGUACAUGAGGAUCACCCAUGUUUGUGGUUGAUCUACAGGACCGGGCCCUGACACG [Erarusge] | 127 nM | 578 nM | 679 nM | 187 nM | 209 nM |
| CAUUAAGUAACUGAUACCAGUGUACUGACAUGAGGAUCACCCAUGUUGGGUUUUGUUGUACACCCUUGGCAGCAGAAUCUUAAUG [AstrosExyTheB#3] | 44.7 nM | 70.2 nM | – | – | 62.2 nM |
| CCCAACAUGAGGAUCACCCAUGUUCCGGGUCGAGGACCGGUACGGCCGCCACUCGGUAUGAUGGGUGUGCAGCGUAUCUGCACCA [theeternabot_sameState_MS2_Trp_A_22] | 30.9 nM | 61.1 nM | 68.4 nM | – | – |
| CCCACAAGCACGGCCGCCACUAUAUUAAUUACUGUCCUAGAACAUGAGGAUCACCCAUGUUAAUGUAGGACCGGGUGCGGGCCCG [theeternabot_exclusion_MS2_Trp_B_7] | 9.21 nM | 11.5 nM | 9.46 nM | – | – |
| CCCAGUCAUAACAAAGCAAAUAUACUCGAAGGAGCGUCAUAGUAGGCAGGUAGGUCGCGAGACAUGAGGAUCACCCAUGUAGAGA [zrzmullin] | 20.1 nM | 33.2 nM | 39.2 nM | 31.8 nM | 35.1 nM |
| CCCAGUCAUAGCAGGGCAAAUAUACUCGAAGGAGCGUCAUAGUAGGCAGGUAGGUCGCGAGACAUGAGGAUCACCCAUGUAGAGA [cccmullin] | 33.6 nM | 67 nM | 44.2 nM | 52.3 nM | 44.8 nM |
| CCCAGUUAUAUCAAAGGAAUUAUACUCGAAGGAGCGUCAUAGUAGGCAGGUAGGUCGCGAGACAUGAGGAUCACCCAUGUAGAGA [pxpmullin] | 37.6 nM | 58.4 nM | 34.5 nM | 51.6 nM | 30.4 nM |
| CCGUUUUAUGGCGACAUAGGGCGGACUGAAGGAGCGGUGAAUAAGCCAGGUAGGUCGCAGAGAUCCACAUGAGGAUCACCCAUGU [!0.aD] | 322 nM | 62.2 nM | 63.5 nM | 52.6 nM | 77.5 nM |
| CCUAACCGAUCGGCCGCCACUGACCGGUACCUCUUCGAAACCCGCCACAUGAGGAUCACCCAUGUCAGGACCGGGAUUGCACAGG [Inxeus] | 14.4 nM | 23 nM | 17.8 nM | 17.2 nM | 38.1 nM |
| CCUAUCCAGUCGGCCGCCACUGAAAACAGUGGGUGAACAUGAGGAUCACCCAUGUAGGAUUUCCACAGGACCGGGACUGUAUAGG [Ex Tryptophan B 24] | 79.4 nM | 1300 nM | 1230 nM | 933 nM | 223 nM |
| CGAAUAUAGGCUACGUGUCAUUGAGGCGAUACCAGAUUAUGCCAGAUCCCUUGGCAGCGCCAAACAUGAGGAUCACCCAUGUUCA [theeternabot_exclusion_MS2_Theo_A_38] | 23.5 nM | 24.8 nM | – | – | 21.5 nM |
| CGAUAUGGGACGGCCGCCACUAUUAUGUAACAAAAUAAACAUGAGGAUCACCCAUGUACAUGGGAUAGGACCGGGUCCUAUAACG [#22 Same State - Tryptophan B] | 29.6 nM | 42.5 nM | 46.2 nM | – | – |
| CGCAACCAACAUGAGGAUCACCCAUGUGAAGGAGCGCCGAAGAAGGCAGGUAGGUCGCACAUGAAUAAAUCAUGUAAAAGGUUGC [MAT - Exclusion Arginine A - Mod of Eli - D19] | 17.7 nM | 64.5 nM | 71.2 nM | 51.4 nM | 40.9 nM |

Reference: the supplement of paper PMC9170038
